# Experimental data as given in PMC3256971 (The Journal of Experimental Medicine, 2011).
# Columns and labels:
# [1] = target: soluble I-A^g7 (mouse); test: SDS stability of the complex
# [2] = test system: I-A^g7; conditions: ref Yu et al., 2000; Levisetti et al., 2007; cited from earlier work
# [3] = test system: B16A-dKO mice; test: Immunization and IL-2 ELISPOT in B16A-dKO mice; assay type: in vivo, mouse; conditions: 10 nmol in CFA, restimulation at 10 µM, Fig. 4 c
# [4] = test system: I-A^g7; conditions: ref Yu et al., 2000; Levisetti et al., 2007; cited from earlier work; remark: listed apart in the source
# [5] = target: soluble I-A^g7 (mouse); test: radioligand binding
molecule,measurement,setting,value
"radioactive peptide bearing the nested register 2:13–21 sequence (added N-terminal tyrosine, B16 tyrosine to phenylalanine)",percent SDS stable,[1],70%
SHLVEALYLVCGERG [B:9–23],binding affinity to I-A^g7,[2],very low affinity
same,IL-2 ELISPOT response to register 1 after immunization,[3],detected a response to register 1 similar to that found in NOD mice
same,rate of dissociation from I-A^g7,[4],fast rate of dissociation
nested B:12–21 peptide with flanking residues,IC50,[5],0.5 µM
"radioactive peptide bearing the nested register 1:12–20 sequence (added N-terminal tyrosine, B16 tyrosine to phenylalanine)",percent of the bound peptide lost in the first 20 min,[5],> 50%
TEGVEALYLVCGGGS [nested register 1:12–20 peptide (insulin B:12–20 with flanking residues)],IC50,[5],1.4 µM
TEGEALYLVCGEGGS [nested register 2:13–21 peptide (insulin B:13–21 with flanking residues)],IC50,[5],0.7 µM
TEGALYLVCGERGGS [nested register 3:14–22 peptide (insulin B:14–22 with flanking residues)],IC50,[5],5.5 µM
